The values below come from PMC3728543, “Structure-Based Mechanism for Early PLP-Mediated Steps of Rabbit Cytosolic Serine Hydroxymethyltransferase Reaction” (BioMed Research International, 2013).

The data set concerns the molecule itself. The data set is described as follows: crystal structure; crystals from 2-3% PEG4000, 20 mM K2HPO4/KH2PO4, 50 mM potassium MES or sodium HEPES pH 7.0, room temperature, protein 50 mg/mL; unliganded or with 60 mM glycine or L-serine; space group P41 with a tetramer per asymmetric unit (T254C-glycine: P41212, a dimer per asymmetric unit).

Substitutions are numbered along the chain they refer to. In names and notes the source's numbering stands.

B1: rabbit cytosolic serine hydroxymethyltransferase, wild type (enzyme, UniProt P07511 1-484, looked up)
chain: MATAVNGAPRDAALWSSHEQMLAQPLKDSDAEVYDIIKKESNRQRVGLELIASENFASRAVLEALGSCLNNKYSEGYPGQRYYGGTEHIDELETLCQKRALQAYGLDPQCWGVNVQPYSGSPANFAVYTALVEPHGRIMGLDLPDGGHLTHGFMTDKKKISATSIFFESMAYKVNPDTGYIDYDRLEENARLFHPKLIIAGTSCYSRNLDYGRLRKIADENGAYLMADMAHISGLVVAGVVPSPFEHCHVVTTTTHKTLRGCRAGMIFYRRGVRSVDPKTGKEILYNLESLINSAVFPGLQGGPHNHAIAGVAVALKQAMTPEFKEYQRQVVANCRALSAALVELGYKIVTGGSDNHLILVDLRSKGTDGGRAEKVLEACSIACNKNTCPGDKSALRPSGLRLGTPALTSRGLLEKDFQKVAHFIHRGIELTVQIQDDTGPRATLKEFKEKLAGDEKHQRAVRALRQEVESFAALFPLPGLPGF
modifications: pyridoxal 5'-phosphate bound as internal aldimine to the epsilon-amino group of Lys257
notes: rabbit cytosolic serine hydroxymethyltransferase (rcSHMT, EC 2.1.2.1); cDNA in the pET22b vector; the wild type probably came the same way; also called rcSHMT; wild type rcSHMT
With B1, the “stoichiometry N” value was 4.

B2: rabbit cytosolic serine hydroxymethyltransferase T254A mutant (enzyme, UniProt P07511 1-484, looked up)
chain: B1 chain with T254A
modifications: pyridoxal 5'-phosphate bound to Lys257 (internal aldimine; gem-diamine with glycine or L-serine)
notes: rabbit cytosolic serine hydroxymethyltransferase (rcSHMT) with T254A; cDNA in the pET22b vector; numbering is that for rcSHMT; also called T254A rcSHMT
As for B2, the “stoichiometry N” value amounted to 4.

B3: rabbit cytosolic serine hydroxymethyltransferase T254C mutant (enzyme, UniProt P07511 1-484, looked up)
chain: B1 chain with T254C
modifications: pyridoxal 5'-phosphate bound to Lys257 (internal aldimine; gem-diamine with glycine or L-serine)
notes: rabbit cytosolic serine hydroxymethyltransferase (rcSHMT) with T254C; cDNA in the pET22b vector; numbering is that for rcSHMT; also called T254C rcSHMT
Take B3: the “stoichiometry N” value stood at 4.

The term stoichiometry N denotes the number of molecules, sites or subunits per partner or assembly.
